Measurements published in patent US20090074766A1, “Methods of inhibiting HIV-2 infection” (priority 2007, published 2009).
“And” between values parts separate entries of the source, which are not always exact repeats. Identical values can stand only once. “Also recorded” adds a separate entry of the source.

Assays:
HIV-1 = conditions: treatment period of 10-14 days, dose-dependent; cited from earlier work
CCR5 = target: T1, CCR5 (Homo sapiens, UniProt P51681); assay: Competition binding: inhibition of 3H-UK-427,857 binding to CEM.NKR-CCR5 cells; conditions: read-out: EC50 for inhibition of 3H-UK-427,857 binding; 2 nM 3H-UK-427,857, pre-incubation with unlabeled compound
T1 construct: host or cells: CEM.NKR-CCR5 (transduced human T cell leukemia line)
Description: Cells were washed and then analyzed for radioactivity by scintillation counting.
The cells were washed in PBSA and lysed with 0.5N HCl prior to scintillation counting using a Wallac1410 instrument.

R5 HIV-1 CC 1/85 = assay: Inhibition of replication in PBMC cultures, RT activity readout: HIV-1 CC 1/85; format: cell-based
Procedure: (§1) Viruses: All virus isolates were grown and titered exclusively in stimulated PBMC as described previously. […] The HIV-2 isolates used in this study have been previously described (Owen, S. M., Ellenberger, D., Rayfield, M., Wiktor, S., Michel, P., Grieco, M. H., Gao, F., Hahn, B. H., and Lai, R. B. 1998. Genetically Divergent Strains of Human Immunodeficiency Virus Type 2 Use Multiple Coreceptors for Entry. J Virol 72:5425-5432) and were obtained from the NIH AIDS Research and Reference Reagent Program.
(§2) PA14 (Lot # DF-021204) was produced for reagent use in the Research & Development laboratories of Progenics Pharmaceuticals Inc.
(§3) Inhibition of HIV-1 and HIV-2 replication in PBMC cultures: PBMC were isolated from 34 healthy blood donors with Ficoll-Hypaque (all media from Cellgro, Herndon, Va.) and depleted of CD8+ cells using RosetteSep CD8 depletion cocktail (StemCell Technologies) according to the manufacturer's instructions. Equal numbers of cells from each donor were then separately stimulated with 5 ug phytohemagglutinin/ml (Sigma, St. Louis, Mo.) or with surface-immobilized anti-CD3 antibody OKT3 in RPMI 1640 medium containing 10% fetal calf serum, 100 Units of interleukin-2/ml (NIH AIDS Research and Reference Reagent Program), glutamine, and antibiotics (PBMC culture medium) as previously described. After 72 hours, equal numbers of PBMC stimulated by one of these two methods from each donor were combined for use in infection assays as follows. […] The virus inoculum was adjusted to 400 to 2,000 times the TCID50 per ml in PBMC culture medium, and a 50-ul aliquot was added to each culture. The inhibitory doses refer to the concentrations of the agents present at this point in the culture, when virus, cells, and inhibitors were all present at their final concentrations. Reverse Transcriptase (RT) activity was measured on Day 7 post infection (pi) for HIV-1 and Day 10 pi for HIV-2 by the Reverse Transcriptase Assay, Colorimetric kit, #11 468 120 910, Roche (Switzerland) according to the manufacturer's instructions with the following exception: neither ultracentrifugation nor PEG precipitation of the culture supernatants was performed before viral lysis.
(§4) The inhibition data were analyzed using GraphPad Prism software (GraphPad Software, San Diego, Calif.). A 4-parameter logistic fit was used calculate the concentration of inhibitor that afforded a 50% and a 90% reduction in RT activity. […] The % inhibitions where best-fit curve reached a top plateau, also as calculated by GraphPad Prism software, are reported as well as maximum percent inhibition (MPI). […] Inhibition curves with a poor sigmoid fit (R^2<0.7) were excluded from data analysis.

R5 HIV-2 A2267 = assay: Inhibition of replication in PBMC cultures, RT activity readout: HIV-2 A2267; format: cell-based
Procedure: as §1, §2, §3, §4

R5 HIV-2 A2270 = assay: Inhibition of replication in PBMC cultures, RT activity readout: HIV-2 A2270; format: cell-based
Procedure: as §1, §2, §3, §4

R5 HIV-2 310072 = assay: Inhibition of replication in PBMC cultures, RT activity readout: HIV-2 310072; format: cell-based
Procedure: as §1, §2, §3, §4

R5X4 HIV-2 310342 = assay: Inhibition of replication in PBMC cultures, RT activity readout: HIV-2 310342; format: cell-based
Procedure: as §1, §2
Inhibition of HIV-1 and HIV-2 replication in PBMC cultures: PBMC were isolated from 34 healthy blood donors with Ficoll-Hypaque (all media from Cellgro, Herndon, Va.) and depleted of CD8+ cells using RosetteSep CD8 depletion cocktail (StemCell Technologies) according to the manufacturer's instructions. […] Reverse Transcriptase (RT) activity was measured on Day 7 post infection (pi) for HIV-1 and Day 10 pi for HIV-2 by the Reverse Transcriptase Assay, Colorimetric kit, #11 468 120 910, Roche (Switzerland) according to the manufacturer's instructions with the following exception: neither ultracentrifugation nor PEG precipitation of the culture supernatants was performed before viral lysis. […]

R5 HIV-2 isolates = assay: Inhibition of replication in PBMC cultures, RT activity readout: panel of five R5 HIV-2 isolates; format: cell-based
Procedure: (§5) Two well-characterized R5 HIV-1 isolates were included for comparative purposes.
Viruses: All virus isolates were grown and titered exclusively in stimulated PBMC as described previously.
Equal numbers of cells from each donor were then separately stimulated with 5 ug phytohemagglutinin/ml (Sigma, St. Louis, Mo.) or with surface-immobilized anti-CD3 antibody OKT3 in RPMI 1640 medium containing 10% fetal calf serum, 100 Units of interleukin-2/ml (NIH AIDS Research and Reference Reagent Program), glutamine, and antibiotics (PBMC culture medium) as previously described. After 72 hours, equal numbers of PBMC stimulated by one of these two methods from each donor were combined for use in infection assays as follows. […] The virus inoculum was adjusted to 400 to 2,000 times the TCID50 per ml in PBMC culture medium, and a 50-ul aliquot was added to each culture. The inhibitory doses refer to the concentrations of the agents present at this point in the culture, when virus, cells, and inhibitors were all present at their final concentrations.
as §4
The panel was tested five times on a different PBMC donor pool each time, using the RT ELISA as a readout.

R5X4 HIV-2 isolates = assay: Inhibition of replication in PBMC cultures, RT activity readout: two R5X4 HIV-2 isolates; format: cell-based; conditions: result in words
Procedure: as §5, §1
Inhibition of HIV-1 and HIV-2 replication in PBMC cultures: PBMC were isolated from 34 healthy blood donors with Ficoll-Hypaque (all media from Cellgro, Herndon, Va.) and depleted of CD8+ cells using RosetteSep CD8 depletion cocktail (StemCell Technologies) according to the manufacturer's instructions. […] Reverse Transcriptase (RT) activity was measured on Day 7 post infection (pi) for HIV-1 and Day 10 pi for HIV-2 by the Reverse Transcriptase Assay, Colorimetric kit, #11 468 120 910, Roche (Switzerland) according to the manufacturer's instructions with the following exception: neither ultracentrifugation nor PEG precipitation of the culture supernatants was performed before viral lysis.
The inhibition data were analyzed using GraphPad Prism software (GraphPad Software, San Diego, Calif.). […]

[1] = human, in vivo
Procedure: Sera were diluted as appropriate and combined with L1.2-CCR5 cells, which are mouse pre-B lymphoma cells engineered to stably express human CCR5. […] Following incubation with test samples, cells were washed and combined with a FITC-labeled sheep antibody against human IgG4 (The Binding Site Limited, Cat. #AF009). Cells were washed again and analyzed by flow cytometry.
Serum was collected post-treatment, cryopreserved, and analyzed for PRO 140 levels. Peak serum concentrations ranged to […] at 0.1 mg/kg and […] at 0.5 mg/kg.

HIV-1JR-CSF = assay: hu-PBL SCID mouse model infected with HIV-1JR-CSF (FIG. 5); format: in vivo; conditions: multiple doses after steady state viral levels, FIG. 5 legend
Procedure: SCID mice were reconstituted with normal human peripheral blood mononuclear cells and infected 2 weeks later with HIV-1JR-CSF. Multiple doses of PRO 140 were administered following attainment of steady state viral levels. Plasma viral loads pre- and post-injection are indicated.

[2] = CC 1/85, current study n = 5, mean
[3] = Median line of the five R5 HIV-2 isolates

T1 sequence (P51681 whole entry): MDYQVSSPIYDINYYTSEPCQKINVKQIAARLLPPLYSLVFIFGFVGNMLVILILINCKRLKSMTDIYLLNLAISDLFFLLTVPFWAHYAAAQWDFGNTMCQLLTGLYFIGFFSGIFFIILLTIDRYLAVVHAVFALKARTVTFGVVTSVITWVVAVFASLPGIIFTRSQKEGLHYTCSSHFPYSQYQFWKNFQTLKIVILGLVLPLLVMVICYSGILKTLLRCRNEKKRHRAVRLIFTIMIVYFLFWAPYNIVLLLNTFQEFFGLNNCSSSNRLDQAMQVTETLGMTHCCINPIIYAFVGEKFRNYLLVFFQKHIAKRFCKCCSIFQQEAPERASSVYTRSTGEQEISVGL

In the case of `COC[C@@H](c1ccc(C(F)(F)F)cc1)N1CCN(C2(C)CCN(C(=O)c3c(C)ncnc3C)CC2)C[C@@H]1C` [SCH-D, 1-[(4,6-dimethyl-5-pyrimidinyl)carbonyl]-4-[4-[2-methoxy-1(R)-4-(trifluoromethyl)phenyl]ethyl-3(S)-methyl-1-piperazinyl]-4-methylpiperidine], the “mean reductions in HIV-1 RNA levels” value (HIV-1) is listed as about 1 log10.

B1: PRO 140: humanized IgG4,κ anti-CCR5 monoclonal antibody, humanized version of murine mAb PA14 (antibody, chains of the INN, looked up, V domains shown)
VH: EVQLVESGGGLVKPGGSLRLSCAASGYTFSNYWIGWVRQAPGKGLEWIGDIYPGGNYIRNNEKFKDKTTLSADTSKNTAYLQMNSLKTEDTAVYYCGSSFGSNYVFAWFTYWGQGTLVTVSS
VL: DIVMTQSPLSLPVTPGEPASISCRSSQRLLSSYGHTYLHWYLQKPGQSPQLLIYEVSNRFSGVPDRFSGSGSGTDFTLKISRVEAEDVGVYYCSQSTHVPLTFGQGTKVEIK
With B1 the EC50 (CCR5) was 14 nM, the “EC50 (mean)” value (R5 HIV-1 CC 1/85; [2]) was under 7.7 µg/mL and the “EC90 (mean)” value (R5 HIV-1 CC 1/85; [2]) was 23 µg/mL. For the same molecule, the “EC90 (median)” value (R5 HIV-1 CC 1/85; HIV-1 CC 1/85, R5, median, current study n = 5) was 6.0 µg/mL, the “MPI (maximum percent inhibition)” value (R5 HIV-1 CC 1/85; R5 HIV-1 CC 1/85, individual assays (Source)) was 94% and 93% and 102% and 95% and the “MPI, Median” value (R5 HIV-1 CC 1/85; R5 HIV-1 CC 1/85, median of assays) was 95%. For the same molecule, the “EC50 (median)” value (R5 HIV-2 A2267; HIV-2 A2267, R5) was 0.10 µg/mL, the “EC90 (median)” value (R5 HIV-2 A2267; HIV-2 A2267, R5) was 98 µg/mL and the “MPI (maximum percent inhibition)” value (R5 HIV-2 A2267; R5 HIV-2 A2267, individual assays (Source)) was 97% and 115% and 88% and 94% and 75%. The “MPI, Median” value (R5 HIV-2 A2267; R5 HIV-2 A2267, median of assays with R^2 >= 0.7) was 94%, the “EC50 (median)” value (R5 HIV-2 A2270; HIV-2 A2270, R5) was 0.12 µg/mL and the “EC90 (median)” value (R5 HIV-2 A2270; HIV-2 A2270, R5) was 3.5 µg/mL. For the same molecule, the “MPI (maximum percent inhibition)” value (R5 HIV-2 A2270; R5 HIV-2 A2270, individual assays (Source)) was 103% and 101% and 97%, the “MPI, Median” value (R5 HIV-2 A2270; R5 HIV-2 A2270, median of assays) was 101% and the “EC50 (median)” value (R5 HIV-2 310072; HIV-2 310072, R5) was 0.08 µg/mL. The “EC90 (median)” value (R5 HIV-2 310072; HIV-2 310072, R5) was 1.4 µg/mL, the “MPI (maximum percent inhibition)” value (R5 HIV-2 310072; R5 HIV-2 310072, individual assays (Source)) was 92% and 96% and 97% and the “MPI, Median” value (R5 HIV-2 310072; R5 HIV-2 310072, median of assays with R^2 >= 0.7) was 96%. For the same molecule, the “EC50 (median)” value (R5X4 HIV-2 310342) was over 100 µg/mL, the “EC90 (median)” value (R5X4 HIV-2 310342) was over 100 µg/mL and the “EC50, median over the R5 HIV-2 isolates” value (R5 HIV-2 isolates; [3]) was 0.12 µg/mL. The “EC90, median over the R5 HIV-2 isolates” value (R5 HIV-2 isolates; [3]) was 21 µg/mL, the “median MPI against the R5 HIV-2 isolates” value (R5 HIV-2 isolates; maximum percent inhibition) was 96% and the “MPI, Median Values, all R5 HIV-2 Viruses” value (R5 HIV-2 isolates; median, all R5 HIV-2 viruses) was 96%. For the same molecule, the “effect on replication of R5X4 HIV-2 isolates” value (R5X4 HIV-2 isolates) was “did not measurably inhibit replication; also recorded: Neither PRO 140 nor PA14 had any measurable effect on replication”, the terminal serum half-life [1] was 240 to 288 h and the “control of viral replication in HIV-1-infected mice” value (HIV-1JR-CSF) was “provides prolonged control of viral replication”.
